{"source": "patent US20100184651A1", "about": "“TARGETED FUSION PROTEINS FOR CANCER THERAPY” (Dabur Pharma Limited, priority 2005, published 2010)", "key": {"[1]": {"test_system": "normal murine cell line, NIH3T3", "assay": "MTT cytotoxicity assay, NIH3T3", "assay_type": "cell-based, mouse", "details": "NIH3T3, 24 h treatment", "method": "Subsequently, cytotoxicity of this protein was determined on cell lines over expressing the VIP receptor like colon carcinoma cell line, HT29 and non small cell lung carcinoma cell line, A549 and compared with a normal murine cell line, NIH3T3, by a quantitative MTT assay. […] Different sensitivities of the two cell lines may be attributed to the differential expression of the VPAC1 receptors and the inherent sensitivity of the cell lines.\nCells were seeded in 96-well microplates, followed by the addition of various concentrations of the fusion protein. After a 24-hour incubation, the MTT assay was performed according to the method of Mosmann [Mosmann T, J Immunol. Methods, 1983, 55-63]. Serial dilutions of chemotherapeutic agents prepared by the Multiplication method were placed in a 96-well microplate. Since the cell lines employed in the present study had different proliferation rates, the number of cultured cells was adjusted to a density that allowed the untreated control cells to grow exponentially. […] Then 200 μl of DMSO was added, and the absorbance was determined at a wavelength of 540 nm using an ELISA reader. Results were expressed as the percent survival of the control experiments in which the cells were not exposed to any protein. […]"}, "[2]": {"biological_target": "T1, VPAC 1 receptors expressed on A549 cells (Homo sapiens, UniProt P32241)", "T1 construct": "the receptors were overexpressed in the A549 cell line; endogenous in cells; host or cells: A549 human lung carcinoma cells (acetone-fixed on slides)", "T1 sequence (P32241 31-457)": "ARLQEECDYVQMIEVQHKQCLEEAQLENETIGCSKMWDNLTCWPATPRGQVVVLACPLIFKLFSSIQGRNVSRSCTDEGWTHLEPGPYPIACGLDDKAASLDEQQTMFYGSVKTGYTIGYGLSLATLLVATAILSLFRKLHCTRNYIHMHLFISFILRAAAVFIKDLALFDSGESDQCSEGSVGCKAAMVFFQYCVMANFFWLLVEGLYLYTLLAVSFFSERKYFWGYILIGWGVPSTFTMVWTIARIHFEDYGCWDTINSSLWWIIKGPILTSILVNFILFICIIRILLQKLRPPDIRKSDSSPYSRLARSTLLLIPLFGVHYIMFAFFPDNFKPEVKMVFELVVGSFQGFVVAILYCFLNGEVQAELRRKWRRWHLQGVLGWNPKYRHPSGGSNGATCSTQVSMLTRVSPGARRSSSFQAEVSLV", "assay": "Immunocytochemical staining for cell surface receptors on A549 cells", "assay_type": "binding", "method": "Similarly, when, the cells were treated with fusion protein and immuno-stained with anti-BID. […] A similar observation was made when A549 cells were pre-treated with VIP antagonist, VIP (10-28) followed by fusion protein and immunostaining with anti-BID (FIG. 15e).\nCultured (A549 human lung carcinoma) cells were detached with trypsin/EDTA and pelleted by low-speed centrifugation. The cells were resuspended in PBS. Cell suspensions were coated onto poly-L-lysine coated glass slides, dried and then fixed for 10 min in acetone at −20° C. After drying for 2 h, slides were rinsed in PBS and then treated for 5 min with water/H2O2 in order to block endogenous peroxidase. Slides were again rinsed again in PBS and treated with normal rabbit and goat serum to block background staining. Slides were then incubated with antagonist, VIP(10-28) and/or fusion protein for 1 hr each. Slides were again washed with PBS and incubated with rabbit-anti-BID antibody (dilution 1:1000) or goat anti-VPAC 1 antibody (dilution 1:1000) for 1 h. Slides were again washed in PBS and incubated with […] IgG peroxidase labelled antibodies for anti-BID and anti-VPAC 1 primary antibodies respectively, for 1 h followed by addition of the 3,3′-diaminobenzidine-tetrachloride (DAB) substrate and hydrogen peroxide in PBS. […]"}, "[3]": {"biological_target": "T2, recombinant human cathepsin D (Homo sapiens, UniProt P07339)", "T2 construct": "purchased R&D Systems, Abingdon, UK", "T2 sequence (P07339 65-412)": "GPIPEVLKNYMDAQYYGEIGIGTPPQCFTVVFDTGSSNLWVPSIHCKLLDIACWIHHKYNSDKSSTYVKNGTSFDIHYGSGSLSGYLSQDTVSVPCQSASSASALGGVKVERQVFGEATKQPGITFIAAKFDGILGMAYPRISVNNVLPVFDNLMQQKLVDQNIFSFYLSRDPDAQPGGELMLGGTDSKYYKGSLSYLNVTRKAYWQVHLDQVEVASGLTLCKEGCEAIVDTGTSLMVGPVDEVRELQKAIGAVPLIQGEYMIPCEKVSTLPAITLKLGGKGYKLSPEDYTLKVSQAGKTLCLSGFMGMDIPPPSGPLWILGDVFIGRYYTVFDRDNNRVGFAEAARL", "assay": "Cleavage at the linker site with recombinant human cathepsin D, followed by LC-MS", "assay_type": "biochemical", "details": "cathepsin D at a ratio of ~400:1 (w/w), pH 3.5, 37° C.", "method": "To evaluate the role of the linker used we carried out an in vitro digestion of the protein with cathepsin D at a ratio of ˜400:1 (w/w) and followed the cleavage by mass spectrometry as a function of time (FIG. 16). The first cleavage occurred at the linker by around 30 minutes of treatment with the protease, giving two peptides of 3914.4 Da (FIGS. 17a) and 4477 Da (FIG. 17b), which corresponded to M (1-34) L (expected mass 3915.5 Da) and L (35-71) H (expected mass 4475 Da) peptides respectively although the majority of the protein was still intact (FIG. 17c), which justified our design of the protein. Subsequently, the protein was cleaved at other sites as mapped by mass spectrometry till 2 H of digestion (FIGS. 18a-e, 19).\nLC/MS analyses were carried out using a Waters 2695 high-perfomance liquid chromatography (HPLC) system (Milford, USA) and Micromass Quattro Micro mass spectrometer (Micromass, UK) using a ZORBAX Eclipse XDB-C18 (4.6×150 mm, 5 μM) column. Mobile phase solvents were 0.1% HCOOH in Milli Q Water (A) and 0.1% HCOOH in Acetonitrile (B). Fusion protein was eluted using a linear gradient program: 0 min 100% A; 60 min 100% B; 60-75 min 100% A, at a constant flow rate of 1.2 mL min^−1, and a volume of 50 μl was directed to the detector of the mass spectrometer. […]"}, "[4]": {"test_system": "A549 cells", "assay": "Mitochondrial membrane potential analysis with JC-1 dye", "assay_type": "cell-based, human", "details": "dose dependent", "method": "After having determined the role of the targeting VIP peptide and the cathepsin cleavable linker we investigated the role of the apoptotic BID peptide. In this regard, we monitored the mitochondrial membrane potential of the cells on treatment with fusion protein using JC-1 dye.\nAliquots of cell suspensions were incubated with 4 μM of JC-1, a specific MMP dependent fluorescence dye [Hortelano S. et al., FEBS Lett, 1997, 411: 77-82], for 30 min at 37° C. and washed once in PBS. Mitochondrial depolarization was qualitatively estimated by fluorescence microscopy with a long-pass filter. […] JC-1 forms aggregates in cells with a high red fluorescence (585 nm) indicating a normal MMP. MMP loss results in a reduction in red fluorescence with a concurrent gain in green fluorescence (530 nm) as the dye shifts from aggregates to monomeric state. Therefore, retention of the dye in the cells can be monitored through the increase in green fluorescence. The fluorescence was measures using Varioskan spectrofluorimeter (Thermo Electron Corporation, Waltham, Mass. USA) and the data was converted to density plots."}}, "data": [{"molecule": "fusion protein: 71 amino acid recombinant polypeptide: VIP, cathepsin cleavable linker SLLIARRMPNFN, BH3 domain of BID, His tag (SEQ ID NO: 10) (protein, This amino acid sequence was artificially generated using naturally occurring mature human VIP peptide produced in E.coli as fusion protein) MHSDAVFTDNYTRLRKQMAVKKYLNSILNGSSLLIARRMPNFNEDIIRNIARHLAQVGDSMDRLEHHHHHH", "values": [{"measurement": "IC50", "setting": "[1]", "result": "> 30", "unit": "µM"}, {"measurement": "availability of VPAC-1 receptors to anti VPAC-1 after pre-treatment", "setting": "[2]; A549 cells pre-treated, then anti-VPAC-1 immunostaining", "result": "significant loss in the immunostained cell population"}, {"measurement": "immunostaining with anti-BID after treatment of cells", "setting": "[2]; A549 cells treated with fusion protein, anti-BID", "result": "localization of the protein on the cells"}, {"measurement": "time of first cleavage at the linker", "setting": "[3]", "result": "around 30 minutes"}, {"measurement": "effect on mitochondrial membrane potential", "setting": "[4]", "result": "decreasing the mitochondrial membrane potential"}]}]}
